Reference: patent US20050233963A1 (SCIENCE AND TECHNOLOGY CORPORATION UNM, published 2005)

Columns and labels:
[1] = biological target: T1, hsp70 (heat shock protein 70) (UniProt P0DMV8 1-641); assay: far-western, GST fusion probe on blotted 20 ng protein
T1 construct: also called hs70 (printed for both hsp70 and hsc70); pure hsp70

[2] = biological target: T2, hsc70 (constitutively expressed form of hsp70) (UniProt P11142 1-646); assay: as above
T2 construct: also called hs70 (printed for both hsp70 and hsc70); pure hsc70
T2 sequence (P11142 whole entry): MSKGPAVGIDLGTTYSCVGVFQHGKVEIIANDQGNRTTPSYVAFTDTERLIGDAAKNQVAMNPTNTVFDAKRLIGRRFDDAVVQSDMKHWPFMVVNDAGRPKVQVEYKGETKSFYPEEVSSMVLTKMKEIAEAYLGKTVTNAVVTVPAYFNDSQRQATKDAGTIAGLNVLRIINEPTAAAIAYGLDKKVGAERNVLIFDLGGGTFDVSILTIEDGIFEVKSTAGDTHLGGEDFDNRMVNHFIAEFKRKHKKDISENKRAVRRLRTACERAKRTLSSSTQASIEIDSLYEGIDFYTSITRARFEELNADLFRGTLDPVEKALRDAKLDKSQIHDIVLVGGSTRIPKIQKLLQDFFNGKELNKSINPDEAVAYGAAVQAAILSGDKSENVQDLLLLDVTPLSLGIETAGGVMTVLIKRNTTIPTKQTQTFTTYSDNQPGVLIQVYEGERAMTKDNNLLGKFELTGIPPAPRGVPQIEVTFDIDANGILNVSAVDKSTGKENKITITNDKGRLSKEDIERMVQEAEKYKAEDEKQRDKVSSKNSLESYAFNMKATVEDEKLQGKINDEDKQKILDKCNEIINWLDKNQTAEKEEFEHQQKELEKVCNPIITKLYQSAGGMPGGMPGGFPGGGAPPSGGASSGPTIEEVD

T1 sequence (P0DMV8 whole entry, the tested form may be a part): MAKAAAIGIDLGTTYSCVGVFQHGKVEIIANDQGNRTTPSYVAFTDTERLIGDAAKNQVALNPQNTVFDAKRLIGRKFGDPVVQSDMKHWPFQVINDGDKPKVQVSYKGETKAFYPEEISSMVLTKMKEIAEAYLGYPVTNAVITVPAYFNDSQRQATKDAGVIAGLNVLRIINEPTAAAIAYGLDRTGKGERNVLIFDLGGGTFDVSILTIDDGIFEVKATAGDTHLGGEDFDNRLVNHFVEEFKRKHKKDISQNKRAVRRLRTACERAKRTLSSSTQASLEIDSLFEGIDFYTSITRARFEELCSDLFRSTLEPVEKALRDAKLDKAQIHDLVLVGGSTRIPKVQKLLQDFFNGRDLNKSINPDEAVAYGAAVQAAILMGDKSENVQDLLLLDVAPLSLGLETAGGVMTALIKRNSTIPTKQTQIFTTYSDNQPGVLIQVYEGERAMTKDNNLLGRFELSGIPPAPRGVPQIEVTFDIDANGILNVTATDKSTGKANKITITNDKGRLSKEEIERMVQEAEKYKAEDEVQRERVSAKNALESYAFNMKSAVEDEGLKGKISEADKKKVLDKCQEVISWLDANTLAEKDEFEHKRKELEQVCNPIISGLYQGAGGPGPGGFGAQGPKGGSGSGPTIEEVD

Binder | binding result [1] | binding result [2]
GST-UBP N1/2 (a.a. 1-145) (other, UniProt O43765 1-145, looked up, not shown: glutathione S-transferase (GST) fusion partner) MDNKKRLAYAIIQFLHDQLRHGGLSSDAQESLEVAIQCLETAFGVTVEDSDLALPQTLPEIFEAAATGKEMPQDLRSPARTPPSEEDSAEAERLKTEGNEQMKVENFEAAVHFYGKAIELNPANAVYFCNRAAAYSKLGNYAGAV | no binding | no binding
GST-UBP C1/2 (a.a. 145-313) (other, UniProt O43765 145-313, looked up, also called C/2; not shown: glutathione S-transferase (GST) fusion partner) VQDCERAICIDPAYSKAYGRMGLALSSLNKHVEAVAYYKKALELDPDNETYKSNLKIAELKLREAPSPTGGVGSFDIAGLLNNPGFMSMASNLMNNPQIQQLMSGMISGGNNPLGTPGTSPSQNDLASLIQAGQQFAQQMQQQNPELIEQLRSQIRSRTPSASNDDQQE | no binding | no binding
